Measured values from US9663815B2, “Cytosolically-active peroxidases as reporters for microscopy” (Massachusetts Institute of Technology, priority 2011, dated 2017).
Numbering of substitutions follows the chain as printed. In names and notes the source's numbering stands.

B1: wt APX: pea cytosolic ascorbate peroxidase (Pisum sativum), wild type, about 28 kD, dimeric (protein, listed as Pisum sativum)
chain: MGKSYPTVSPDYQKAIEKAKRKLRGFIAEKKCAPLILRLAWHSAGTFDSKTKTGGPFGTIKHQAELAHGANNGLDIAVRLLEPIKEQFPIVSYADFYQLAGVVAVEITGGPEVPFHPGREDKPEPPPEGRLPDATKGSDHLRDVFGKAMGLSDQDIVALSGGHTIGAAHKERSGFEGPWTSNPLIFDNSYFTELLTGEKDGLLQLPSDKALLTDSVFRPLVEKYAADEDVFFADYAEAHLKLSELGFAEA
B2: mAPX: double mutant K14D/E112K of pea APX (SEQ ID NO:1), monomeric (protein, listed as Pisum sativum)
chain: B1 chain with K14D, E112K

Legend:
connexin43 (Cx43) = experiment: Connexin43 fusion localization to gap junctions; type: cell-based, rat; details: fused to connexin43
Protocol: Both mAPX and wt APX were fused to connexin43 (Cx43), a protein that is sensitive to oligomeric tags (FIG. 4d) (McKinney, et. al., Nat Meth 6, 131-133 (2009); Lauf, et. al., FEBS letters 498, 11-15 (2001)).
(§1) To generate a monomeric APX with improved activity, the two mAPX mutations (K14D/E112K) were added to each of the activity-enhanced mutants. […] The sextuple mutant (K14D, E112K, W41F, D133A, T135F, K136F=mAPX−FFAF), was compared to mAPX+W41F within cells. HEK cells were transfected with constructs targeted to the mitochondrial matrix (Table 3), while COS-7 cells were transfected with constructs fused to the C-terminus of connexin 43 (Table 3). After fixation, the cells were treated with DAB and H2O2 to generate DAB polymer. […] After fixation, cells were stained with anti-Flag (for matrix) or anti-myc (for connexin) antibody to visualize peroxidase expression levels. […] Therefore mAPX+W41F (K14D/E112K/W41F) was selected, denoted as “APEX” (for Enhanced APX), as the optimized reporter for subsequent experiments.
(§2) Any cell displaying detectable GFP fluorescence was considered transfected. Contact sites between neighboring transfected cells were identified using DIC imaging. Gap junctions were identified as lines of GFP fluorescence unambiguously overlaying with the plasma membrane of two transfected cells based on DIC. DAB stain intensity for APX-NES variants was analyzed using SlideBook. Transfected cells were identified by nuclear YFP fluorescence. In each transfected cell, a representative DAB-stained region was encircled, and its average brightfield intensity was calculated. Background intensity, determined for each field of view by encircling a representative region in the cytosol of an untransfected cell, was subtracted out. The bar graph in FIG. 2c represents mean data from >60 transfected cells.

HEK cells = experiment: DAB staining of transfected cells (brightfield); type: cell-based; details: for DAB staining activity in mitochondrial matrix: mitochondrial matrix-targeted constructs, HEK cells
Protocol: Next, the activity of wt APX and mAPX was compared in mammalian cells.
as §1
A solution of 4% formaldehyde (freshly depolymerized from paraformaldehyde) with 2% glutaraldehyde in 10 mM phosphate buffered saline (PBS) was added to cells 24 hours after transfection. Cells were treated for 3 min at room temperature, then 30 min on ice. Cells were then washed 5×2 min using ice cold 10 mM PBS. Cells were blocked with 20 mM glycine for 5 min on ice. Cells were then washed 5×2 min with ice-cold 10 mM PBS. Cells were then treated with an ice-cold solution of DAB (0.5 mg/mL) and H2O2 (0.03%) in 10 mM PBS for 20 min. Cells were then washed 5×2 min with ice-cold 10 mM PBS. Cells were treated with 2% OsO4 in ice-cold 10 mM PBS for 30 min, then washed 5×2 min with ice-cold distilled deionized water. Cells were then placed under ice-cold 2% aqueous uranyl acetate for 24 hours.
as §2

Molecule	localization of connexin43 fusion / gap junction formation (connexin43 (Cx43))	DAB staining activity in mitochondrial matrix (HEK cells)	activity toward DAB (DAB stain) (HEK cells; expressed throughout the cytosol via NES fusion)
B1	abnormal retention inside cells	comparably active	–
B2	–	comparably active	less active than wt APX
